# Source: the nanobody polyreactivity screen of Harvey et al. (2022)
# Assay: yeast display, Sf9 membrane polyspecificity reagent, FACS + sequencing; frameworks hold sequencing errors
# How it was run: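 Nanobodies came from a synthetic yeast display library in Saccharomyces cerevisiae BJ5465, induced with galactose for 36–48 hours and stained for 1 hour at 4 °C with 10% biotinylated, detergent-solubilized Sf9 membrane reagent. Cells were enriched on streptavidin microbeads and then FACS-sorted, with low and high (top ~1%) gates set on anti-HA fluorescence for expression and streptavidin fluorescence for reagent binding. Each polyreactivity label reflects the gate a clone came from. Genes were amplified by colony PCR, sequenced by MiSeq 2 × 250 and filtered by CDR length.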
row,Sequence,polyreactivity (PSR sort gate)
1,QVQLVESGGGLVQAGGSLRLSCAASGRTFSTNVMGWYRQAPGKERELVAAITTSSSRTYYADSVKGRFTISRDNAKNTVYLQMNSLKPEDTAVYYCAARIHGSWSFDYWGQCTQVTVSS,low polyreactivity
2,QVQLVESGGGLVQAGGSLRLSCAASGIIFASNAMGWYRQTPGKERELVAAISGSGGRTYYADSVKGRFTISRDNAKNTVYLQMNSLKPDDTAVYYGAAARANNYDYWGQGTQVTVSS,high polyreactivity
3,QVQLVESGGGLVQAGGSLRLSCAASGSIFVKNAMGWYRQAPGKERELVAVITIRTATTYYADSVKGRFTISRDNAKNTVYLQMNSLKPEDTAVYYCAAAKRQRGYLQREGNYWGQGTQVTVSS,low polyreactivity
4,QVQLVESGGGLVQAGGSLRLSCAASGSTFGWYTMGWYRQAPGKERELVATISYGGGITNYADSVKGRFTISRDNAKNTVYLQMNSLKPEDTAVYYCAARGDGVTNPFGYWGQGTQVTVSS,high polyreactivity
5,QVQLVESGGGLVQAGGSLRLSCAASGIIFGVYAMGWYREAPGKERELVAAISRSGDSTYYADSVKGRFTISRDNAKNTVYLQMNSLKPEDTAVYYCAAEWYFTFDYWGQGTQVTVSS,low polyreactivity
6,QVQLVESGGGLVQAGGSLRLSCAASGFIFWRNAMGWYRQAPGKEREFVARISSSGGSTYYADSVKGRFTISRDNAKNTVYLQMNSLKPEDTAVYYCNADVWYRYGYFRYDYWGQGTQVTVSS,high polyreactivity
7,QVQLQESGGGLMQAGGSQRLSCAASGSISYYSDRGWYRQAPGKEREFVAGIGYGTTTNYADSVKGRFTTSRDNAKNTVYLQMICMKPEDTAVYYCAAYQGNGYEFYYWGQGTQVTVRS,low polyreactivity
8,QVQLVESGGGLVQAGGSLRLSCAASGFTFTYNTMGWYRQAPGKERELVAAISRSGGSTYYADSVKGRFTISRDNAKNTVYLQMNSLKPEDTAVYYCAKQRRDYNGGYWGQGTQVTVSS,high polyreactivity
9,QVQLEESGGGLVQAGGSLRLSCAASGSIFYYYVMGWCRQAPGKERELVAAISSGGGTNYADSVKGRFTISRDNAKNTVYLQMNSLKPEDTAVYYCAKASAYGLANDYDYWGQGTQVTVSS,low polyreactivity
10,QVQLVESGGGLVQAGGSLRLSCAASGSIFGSYVMGGYRQAPGKERELVATITNGGSTYYADSVKGRFTISRDNAKNTVYLQMNSLKPEDTAVYYCAADGRGDLYVWPGIGGDYWGQGTQVTVSS,low polyreactivity
11,QVQLVESGGGLVQAGGSLRLSCAASGSIFLRYDMGWYRQAPGKERELVAAISRGGSTYYADSVKGRFTISRDNAKNTVYLQLNSLKPEDTAVYSCAARRFGREHGYWGQGTQVTVSS,high polyreactivity
12,QVQLVESGGGLVQAGGSLRLSCAASGSTFQTYAMGWYRQAPGKERELVAAISFNGGSTYYADSVKGRFTISRDNAKNTVYLQMNSLKPEDTAVYYCAVEYTWASALYDGRHDYWGQGTQVTVSS,high polyreactivity
13,QVKLVESGGGLVQAGGSLRLSLQPPDSPSTTMLWDGIDRRLAKKGSWLPVFLPSGGTTYADSVKGRFTISRDNAKYTVYLQMNSLKPEDTAVYYCNADLSDVAVTDHDYWGQVTQVTVSS,low polyreactivity
14,QVQLVESVRGLVQAGGSLRVSCAASGRTFIVYAMGWYRQAPGKERELVAGITRGSTKYADSVKGRFTISRDNAKNTVYLQMNSLKPEDTAVYYCAGRSSRRGPISEGDYWGQGTQVTVSS,high polyreactivity
15,QVQLVESGGGLVKAGGSLRLSCAASGLIFRRNAMGWYRQAPGKERELVATINFRDTTRYADSVKGRFTISRDNAKNTVYFQMNSLKPEDTAVYYCATEWPERDWWVHKMDYWGQGTQVTVSS,low polyreactivity
16,QVQLVESGGGLVQAGGSLRLSCAASGFTFGYYAMGWYRQAPGKERELVAAITYDGDITYYADSVKGRFTISRDNAKNTVYLQMNSLKPEDTAVYYCAADTVYRSYYWGQGTQVTVSS,low polyreactivity
17,QVQLVESGGGLVQAGGSLRLSCAASGFTFKFYAMGWYRQAPGKERELVAAISGSGDSTYADSVKGRFTISRDNAKNTVYLQINSLKPEDTAVYYFNGRYAGVPWWGYYSRFDYWGQVTQVTVSS,low polyreactivity
18,QVQLVESGGGLVQAGGSLRISCAASGCTFSFNAMGWYRPAPGKERELVAAITTADSTYYADSVKGRFTISRDNAKNTGYFQMNSLKPEDTAVYYCAADAYWEYDYWGQGTQVTVSS,low polyreactivity
19,QVQLVESGGGLVQAGGSLRLSCAASGLTFPTYAMRWYRQAPGKERELVAAISRIGGRTYYADSVKGRFSISRDNAKNTVYLQMNSLKPEDTAVYYCAADGIKGGVEYDYWGQGTQVTVSS,high polyreactivity
20,QVQLVDSGGGIGQAGASLRLSCAASGRNFAVYAIGWYRQAPGKERELVAAITRNGGSTYADSVKGRFTISRDNAKNTVYFQMNSLKPDDTAVYYCNAVAYIYSYAYPPYWGREHLNYWGQGTQLTVSS,low polyreactivity
21,QVQLVESGGGLVQAGGSLRLSCAASGSTFWFSAMGWYRQEPGKERELVAAITWSGGRTYYADSVKGRFTISRDNAKNTVYLQLNSLKPEDTAVYYCNKAYPQFGPLDDWGQGTQVTVSS,low polyreactivity
22,QVQLVESGGGLVQAGGSLRLSCAASGGTFGSNAMGWYRPAPGKERELVAAISTTGGTTYYADSVKGRFTISRDNAKNTVYLQMNSLKPEDPAVYYCAKDGYVYGDWYTYAYDYWGQGTQVTVSS,low polyreactivity

row,Sequence,polyreactivity (PSR sort gate)
1,QVQLVESGGGLVQAGGSLRLSCAASGRTFRYYVMGWYRPAPGKERELVASITSNGDSTYYADSVKGRFTISRDNAKNTVFLQWKSLKPEDTAVDYCAVRWRDYRGSYRGFEYWGQGSQVTVSS,high polyreactivity
2,QVHLVESGGGLVQAGGSLRLSCAASGSILAGYAMGWYRQAPGKEWELVAAISSGGRTYYADSVKGRFTISRDNAKNTVYLQMNSLKPEDTAVYYSAAGKYDGSRRMYYWGQGTQVTVSS,high polyreactivity
3,QVQLVESGGGLVQAGGSLRLSCAASGRIFPWYAMGWYRQAPGKERELVAAITSGGGSTSYADSVKGRFTISRDNAKNTVYLQMNRLKPEDTAVYYCAARRWISSHSYKYGYWGQGTQVTVSS,high polyreactivity
4,QVQLVESGGGLVQAGGSLRLSCAASGSTYNINAMGWYRQAPGKERELVAAISWSGGSTYYADSVKGRFTISRDNAKNTVYLQMNSLKPEDTAVYYCNALWVWYRGSSVRWVGGYDYWGQGTQVTVSS,high polyreactivity
5,QVQLVESGGGLVQAGGSLRLICAASGRIFRANARGWYRQAPGKERELVATIRNSGGITYYADSVKGRFTISRDHAKNTVYLQMNSLKPEDTALYYCGNLGRYCYDYWGQGTQVTVSS,high polyreactivity
6,QVQLVESVGGLVQAGGSLRLSCAASGGIFWVYAMGWYRQAPGKERELVASISWNGGSTNYADSVKGLFTISRDNAKNTVYLQMNSLKPEDTAVYYCAAEYWTSYADYRYDYWGQGTQVTVSS,low polyreactivity
7,QVQLVESGGGLVQAGGSLRLSCAASGFTLNAYAMGWYRQAPGKERELVAAISRNGGRTYYADSVKGRFTISRDNAKNTVYLQMNSLKPEDTAVYYCNAVSGTIARPYDPYDYWGQGTQVTVSS,high polyreactivity
8,QVQLQESGGGLVQARGSLRLSSAASGYISYLDFMGWYGQAPGKERELVAGITTGATTNYADSVKGRFTISRDNAKNIVYQQINSLKQEDTAVYYCARGTEVKSGISYRFYYWGQGTQVTVSS,low polyreactivity
9,QVQLVESGGGLLQAGGSLRLIWAASGIIFVKNSMGWYRQAPGKERELVAAITVSGSRTYYADSVKGRFTISRDNAKNTVYLQMNSLKPEDTAVYYCNAYPYYRGRNMDSWGQGTQVTVSS,high polyreactivity
10,QVQLVESGGGLVQAGGSLRLSCAASGRTFYKYAMGWYRPAPGKERELVAAISGSGGGTYYADSVKGRFTISRDNAKNTVYLQMNSLKPEDTAVYYCAAVYLYYAYAFDYWGQGTHVTVSS,high polyreactivity
11,QVQHVESGGGLVQAGGSLRLSCAATGTTFDTYAMGWNRQATGKERELVAAINSGGGTNYADSVKGRFTIARDNAKNTVYLQMNSLKPEVTAVYYCATDIRRDAGGGDFDYWGQGTQVTVSS,low polyreactivity
12,QVQLVESGGGLVQAGGSLRLSCAASGRTFPYYTMGWYRQAPGKERELVAAIDGSGDNTYYADSVKGRFTISRDYAKNTVYLQMNSLKPEDTAVYYCTAEQWGSLDYWGQGTQVTVSA,low polyreactivity
13,QVQLVESGGGLVQAGGSLRLSCAASGSTFRGNAMGWYRQAPGKERELVASITGGGSTNYADSVKGRFTISRDNAKNTVYLQMNSLKPEDTAVYYCAADWGADFYGGQGTQVTVSS,low polyreactivity
14,QVQLVESGGGLVQAGVSLRLSCAASARSFAWKAMVWYRQAPGKERELVAAITWSGGSTYYADSVKGRFTISRDNGKNTVYFQLNSLKQEDTAVYYCNKLYPYYATHTTRGLDYWGQGTQVTVSS,high polyreactivity
15,QVQLVESGGGLVQAGGSLRLSCAASGLTFAYYDMGWYRQAPGKERELVAAITSGGTTNYADSVKGRFTISRDNAKNTVYLQMNSLKPEDTAVYYCNADYYSRIVGVRIYDYWGQGTQVTVSS,low polyreactivity
16,QVQLVESGGGLVQAGGSLRLSCAASGFIFDSYAMGWYRQAPGKERELVAAISYSAGSTSYADSVKGRFTISRDNAKNTVYLQMNSLKPEDTAVYYCNARYYPLYSNSYYSWGQGTQVTVSS,low polyreactivity
17,QVQLVESGGGLVQAGGSLRLSCAASGSTFCENDMGWYRQAPGKERELVAAISWTGGRTYYADSVKGRFTISRDNAKNTVYLQMNSLKAEDTAVYYFAAEWEYYGFDYWGQGTQVTVSS,low polyreactivity
18,QVQLVESGGGLVQAGGSLRLSCAASGIIFPPYTMGWYRQAPGKERELVAGITGNSGTTYYADSVKGRFTISRDNAKNTVYLQMNSLKPEDTAVYYCAVRDVYHRYWGQGTQVTVSS,high polyreactivity
19,QVQLVESGGGLVQAGGSLRLSCAASGSIFVYNVMGWYRQAPGKERELVAAINYSGVSTYYADSVKGRFTISRDNAKNTVYLQMNSLKPEDTAVYYCAAEYEFGHSSTPMDYWGQGTQVTVSS,high polyreactivity
20,QVQLVESGGGLVQAGGSLRLSCAASGSIFKRNAMGWYRQAPGKERQLVASISWSGSRTYYADSVKGRFTISRDNAKNTVYLQMISLKPEDTAVYYCARRIYGGHPSQSTQGDFYYWGQGTQVTVSS,high polyreactivity
21,QVQLVESGGGLVQAGGSLRISCAASGSIFPAYDMGWYRQAPGKERELVAAITRGGSTDYADSVNGRFTISRDNAKNTVYLQMNSLKPEDTAVYFCAKRGYYYYHYVSGKPEDYWGQGTQVTVSS,low polyreactivity
